We go through 19 molecules from patent US20250250357A1.

As usually defined, the EC50 is the concentration at which the effect is half-maximal.

The target of test [1] is monkey MSLN full-length protein expressed on HEK293T cells (HEK293T-monkey MSLN) (monkey). As to the kind of experiment: FACS on HEK293T-monkey MSLN cells.
For test [2], the target named is human MSLN on OVCAR3 tumor cells (human) (UniProt Q13421). Description: FACS, OVCAR3 cells. On the technique in general: In flow cytometry, cells or beads pass a laser one at a time.
Sequence of human MSLN on OVCAR3 tumor cells (human) (Q13421 other isoform, or with tags, fused parts or gaps): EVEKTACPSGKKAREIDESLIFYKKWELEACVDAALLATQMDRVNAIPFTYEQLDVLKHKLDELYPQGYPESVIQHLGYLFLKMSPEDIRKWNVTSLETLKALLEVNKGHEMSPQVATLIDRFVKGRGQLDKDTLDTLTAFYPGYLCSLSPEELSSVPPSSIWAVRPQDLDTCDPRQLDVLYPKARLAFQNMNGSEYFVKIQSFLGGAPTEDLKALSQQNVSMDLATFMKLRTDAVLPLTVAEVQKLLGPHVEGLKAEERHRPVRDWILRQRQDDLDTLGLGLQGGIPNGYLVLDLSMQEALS

B1: S009-F8-18.9 (antibody, human IgG1, kappa, V domains shown)
VH: EFQLQQSGPELVKPGASVKISCKASGYSFTDYNMNWVKQSNGKSLEWIGIINPNYGTTSYNQKFKGRATLTVDQSSSTAYVQLNSLTSEDSAVYYCARGGYDNEAMDYWGQGTSVTVSS
VL: QIVLTQSPAIMSASPGEKVTMTCSASSSVSYMHWYQQKSGTSPKRWIYDTSKLASGVPARFSGSGSGTSYSLTISSMEAEDAATYYCQQWSSNPPTFGAGTKLELKR
On to B1, for which, in test [1], the EC50 came out at 0.81 nM and the Maximum mean fluorescence intensity was determined as 24900.

B2: S009-F8-19.21 (antibody, human IgG1, kappa, V domains shown)
VH: EFQLQQSGPELVKPGASVKISCKTSGYSFTDYNMNWVKQSNGKSLEWIGVINPNYGTTGYNQKFKGKATLTVDQSSSTAYMQLNSLTSEDSAVYYCARGGYDGEAMDYWGHGTSVTVSS
VL: QIVLTQSPAIMSASPGEKVTMTCSASSSVNYMHWYQQKSGTSPKRWIYDTSKLASGVPARFSGSGSGTSYSLTISSMEAEDAATYYCQQWSSYPPTFGGGTKLEIKR
Regarding B2, in test [1], the EC50 is 0.3 nM and the Maximum mean fluorescence intensity was 24900.

B3: S009-F8-22.23 (antibody, human IgG1, kappa, V domains shown)
VH: QVQLKQSGPGLVQPSQSLSITCTVSGFSLFSYGVHWVRQSPGKGLEWLGVIWSGGSTDYNAAFISRLSISKDNSKSQVFFKMNSLQADDTAMYYCARNGGSMITTLYYAMDYWGQGTSVTVSS
VL: DVVMTQTPLSLPVSLGDQASISCRSSQSLVHSYGNTYLHWYLQKPGQSPKLLIYKVSNRFSGVPDRFSGSGSGTDFTLKISRVEAEDLGVYFCSQSTHIPFTFGGGTKLEIKR
For B3, in test [1], the EC50 stood at 1.09 nM and the Maximum mean fluorescence intensity worked out at 114000.

B4: S009-F8-32.3 (antibody, human IgG1, kappa, V domains shown)
VH: QVQLKESGPGLVAPSQSLSITCTVSGFSLSSYAISWVRQPPGKGLEWLGVIWTGGGTNYNSALKSRLSISKDNSKSQVFLKMNSLQTDDTARFYCARNNYGRLDYAMDYWGQGTSVTVSS
VL: DVVMTQTPLSLPVSLGDQASISCRSSQSLVHGNGNTYLHWYLQKPGQSPKLLIYKVSNRFSGVPDRFSGSGSGTDFTLKISRVETEDLGVYFCSQSTHVPFTFGSGTKLEIKR
In test [1], B4 returned an EC50 of 0.69 nM and a Maximum mean fluorescence intensity of 112000.

B5: S009-F8-31.22 (antibody, human IgG1, kappa, V domains shown)
VH: EVQLVESGGDLVKPGGSLKLSCAASGFTFSTYGMSWVRQTPDKRLEWVATISSGGSYTYYPDSLKGRFTISRDNAKNTLYLQMSSLKSEDTAMYYCARHEGYYYGKDYWGQGTTLTVSS
VL: DIVLTQSPATLSVTPGDSVSLSCRASHSISNNLHWYQQKSHESPRLLIKYASQSISGIPSKFSGSGSGTDFTLSINSVETEDFGMYFCQQTNSWPLTFGAGTKLELKR
As for B5, in test [1], the Maximum mean fluorescence intensity was determined as 3390.

B6: S009-F8-12.13 (antibody, human IgG1, kappa, V domains shown)
VH: QVQLQQPGAELVKPGASVKLSCKASGYTFTSYWMHWVKQRPGQGLEWIGMIHPNSGSTNYNEKFKSKATLTVDKSSSTAYMQLSSLTSEDSAVYYCARRTPIITLVGHWYFDVWGTGTTVTVSS
VL: DIVMTQSHKFMSTSVGDRVSITCKASQDVGTAVAWYQQKPGQSPKLLIYWASTRHTGVPDRFTGSGSGTDFTLTISNVQSEDLADYFCQQYSSYPLTFGAGTKLELKR
In test [1], B6 registered an EC50 of 0.08 nM and a Maximum mean fluorescence intensity of 21500.

B7: S009-F8-15.19 (antibody, human IgG1, kappa, V domains shown)
VH: EFQLQQSGPELVKPGASVKISCKASGYSFTDYNMNWVKQSNGKSLEWIGIINPYYGTTSNNQNFKGKATLTVDQSSSTAYMQLNSLTSDDSAVYYCARWLRRDAMDYWGQGTSVTVSS
VL: DIVMTPSHKFMSTSVGDRVSIACKASQDVGSSVAWYQQKPGQSPKLLIYWTSTRHTGVPDRFTGSGSGTDFTLTISNVQSEDLADYFCQQYSSYPWTFGGGTKLEIKR
In the case of B7, in test [1], the EC50 turned out to be 0.39 nM and the Maximum mean fluorescence intensity worked out at 28200.

B8: S009-F8-33.12 (antibody, human IgG1, kappa, V domains shown)
VH: EVQLQQSGAELVKPGASVKLSCTASAFNIKDYYMHWVKQRTEQGLEWIGRIDPEDGETKYAPKFQGKATITADTSSNTAYLQLSSLTSEDTAVYYCASGSGTGAMDYWGQGTSVTVSS
VL: DIVMTQSQKFMSTSVGDRVSITCKASQNVRTAVGWYQQKPGQSPKALIYLASNRHTGVPDRFTGSGSGTDFTLTISNVQSEDLADYFCLQHWNSPYTFGGGTKLVIKR
In the case of B8, in test [1], the EC50 worked out at 0.64 nM and the Maximum mean fluorescence intensity was 106000.

B9: S009-F8-4.5 (antibody, human IgG1, kappa, V domains shown)
VH: QVQLQQPGAELVKPGASVKLSCKASGYTFTIYWMHWVKQRPGQGLEWIGMIHPNSGNTNYNEKFKSKATLTVDKSSSTAYMQLSSLTSEDSAVYYCSLIHWYFDVWGTGTTVTVSS
VL: QIVLTQSPAIMSASPGEKVTMTCSASSSVSYMYWYQQKPGSSPRLLIYDTSNLASGVPVRFSGSGSGTSYSLTISRMEAEDAATYYCQQWSSYPLTFGAGTKLELKR
As for B9, in test [1], the EC50 was determined as 0.64 nM and the Maximum mean fluorescence intensity was 35000.

B10: S009-F8-13.8 (antibody, human IgG1, kappa, V domains shown)
VH: EFQLQQSGPELVKPGASVKISCKASGYSFTDYNMNWVKQTNGKSLEWIGIINPNYGTSSYNQKFKGKATLTVDQSSSTAYMQLNSLTSEDSAVYYCARVGRDNSGFDYWGQGTTLTVSS
VL: QIVLTQSPAIMSASPGEKVTMTCSASSSVSYMYWYQQKPGSSPRLLIYDTSNLASGVPVRFSGSGSGTSYSLTISRMEAEDAATYYCQQWSSYPPTFGSGTELEIKR
In test [1], B10 gave an EC50 of 0.15 nM and a Maximum mean fluorescence intensity of 20500.

B11: S009-F8-29.1 (antibody, human IgG1, kappa, V domains shown)
VH: QVQLQQSGAELARPGASVKMSCKASGYTFISYTMHWVKQRPGQGLEWIGYINPSSGYTKYNQKFKDKATLTADKSSSTAYMQLNSLTSEDSAVYYCARYYSNPDYYAMDYWGQGTSVTVSS
VL: QIVLTQSPAIMSASPGEKVTITCSASSSVSYMHWFQQKPGTSPKLWIYSTSNLASGVPARFSGSGSGTSYSLTISRMEAEDAATYYCQQRSSYPLTFGGGTKLELKR
In test [1], B11 displayed a Maximum mean fluorescence intensity of 80.

B12: F3.80.22-H1 (scFv, not shown: small tags and cut ends)
scFv: DIVMTQTPLSLPVTPGEPASISCRSSQSLEHNNGNTYLHWFLQKPGQSPQLLIYKVSNRFSGVPDRFSGSGSGTDFTLKISRVEAEDVGVYYCSQSTHVPFTFGQGTKLEIKGGGGSGGGGSGGGGSEVQLVQSGAEVKKPGATVKISCKVSGYTFTDYEIHWVQQAPGKGLEWMGAFDPEIGGSAYNQKFKDRVTITADKSTDTAYMELSSLRSEDTAVYYCTDYYGSSSGYFDVWGQGTTVTVSS
In test [2], B12 displayed a Maximum MFI of 471 MFI.

B13: F3.80.22-H2 (scFv, not shown: small tags and cut ends)
scFv: DIVMTQTPLSLPVTPGEPASISCRSSQSLEHNNGNTYLHWFLQKPGQSPQLLIYKVSNRFSGVPDRFSGSGSGTDFTLKISRVEAEDVGVYYCSQSTHVPFTFGQGTKLEIKGGGGSGGGGSGGGGSEVQLVQSGAEVKKPGATVKISCKASGYTFTDYEIHWVQQAPGKGLEWMGAFDPEIGGSAYNQKFKDRVTITADKSTSTAYMELSSLRSEDTAVYYCTDYYGSSSGYFDVWGQGTTVTVSS
As to B13, the Maximum MFI in test [2] was determined as 512 MFI.

B14: S009-F8-9.16 (antibody, human IgG1, kappa, V domains shown)
VH: EVHLQQSGPVLVKPGASVKMSCKASGYTFTDYFMNWVKQSHGKSLEWIGVINPHNGYVNYNQKFQGRATLTVDKSSSTVYMELNSLTSEDSAVYHCARSAESAWFAYWGQRTLVTVSA
VL: DVLMTQTPLSLPVSLGDQVSISCRSSQSIVHVKGNTYLEWYLQKPGQSPELLIYKVSNRFSGVPDRFSGGGSGTDFTLKISRVEPEDLGVYYCFQGSHLPYTFGGGTKLEIKR
In turn, B14 registered a Maximum mean fluorescence intensity in test [1] of 348.

B15: S009-F8-36.12 (antibody, human IgG1, kappa, V domains shown)
VH: EVQLQQSGPELVKPGASVKISCKASGYTFTDYYMNWVKQSHGKSLEWIGDINPNNGGTSYNQKFKGKATLTVDKSSSTAYMELRSLTSEDSAVYYCASWGYGSSSRGYFDYWGQGTTLTVSS
VL: QIVLSQSPAILSASPGEKVTMTCRASSSVSYMHWYQQKPGSSPKPWIYATSNLASGVPARFSGSGSGTSYSLTISRVEAEDAATYYCQQWSSNPWTFGGGTKLEIKR
Take B15: the Maximum mean fluorescence intensity in test [1] is 173.

B16: S009-F8-27.1 (antibody, human IgG1, kappa, V domains shown)
VH: EVQLVESGGGLVKPGGSLKLSCAASGFTFSSYAMSWVRQTPEKRLEWVATISDGGNYTYYPDNVKGRFTISRDNAKNNLYLQMSHLKSEDTAMYYCAGDRGYPYAMDSWGQGTSVTVSS
VL: NIMMTQSPSSLAVSAGEKVTMSCKSSQSVLYSSNQKNYLAWYQQKPGQSPKLLIYWASTRESGVPDRFTGSGSGTDFTLTISNVHAEDLAVYYCHQYLSSLTFGAGTKLELKR
In the case of B16, in test [1], the EC50 stood at 2.05 nM and the Maximum mean fluorescence intensity was 31300.

B17: S009-F8-5.15 (antibody, human IgG1, kappa, V domains shown)
VH: QVQLQQPGTELVKPGASVKLSCKASGYTFTSYWMHWVKQRPGQGLEWIGHSNPSNGGTNYNEKFKSKATLTVDKSSSTAYMQLSSLTSEDSAVYYCARWVRGSNYEYFDVWGTGTTVTVSS
VL: DIVMTQSQKFMSTTVGDRVSIICKASQNVGSAVAWCQQKPGQSPKLLIYSASNRYTGVPDRFTGSGSGTDFTLTISNMQSEDLADYFCQQYSSYPLTFAGGTKLEIKR
Regarding B17, in test [1], the EC50 is 0.18 nM and the Maximum mean fluorescence intensity stood at 20200.

B18: S009-F8-8.22 (antibody, human IgG1, kappa, V domains shown)
VH: EVQLQQSGPELVKPGASVKMSCKASGYTFTDYIIHWVKQSHGKSLEWIAYIFPNNGGTGYNQKFRGKATLTVNKSSSTAYMELRSLTSEDSAVYYCARWRLRQYFDVWGTGTTVTVSS
VL: DIVMTQSQKFMSTIVGDRVSITCKASQNVGTAVAWYQQKPGQSPKLLIYSASNRYTGVPDRFTGSGSGTDFTLTISNMQSEDLADYFCQQYSSYPLTFGGGTKLEIKR
Turning to B18, in test [1], the EC50 was found to be 0.36 nM and the Maximum mean fluorescence intensity came to 112000.

B19: S009-F8-24.14 (antibody, human IgG1, kappa, V domains shown)
VH: EFQLQQSGPELVKPGASVKISCKASGYSFTDYNMNWVKLSNGKSLEWIGVIIPNYGTSSYNQKFKGKATLTVDQSSSTAYMQLNSLTSEDSAVYYCARWDNYYGSSLDYWGQGTTLTVSS
VL: DIVMTQSQKFMSTTVGDRVSITCKASQNVGTAVAWYQQKPGQSPKLLIYSASNRYTGVPDRFTGSGSGTDFILTISNMQSEDLADYFCQQYSSYPLTFGAGTKLELKR
In the case of B19, in test [1], the EC50 came to 0.52 nM and the Maximum mean fluorescence intensity amounted to 105000.
